One assay concerns COS7 cells. The assay can be described thus: Subcellular distribution of GFP-HIF-1α chimeras in living cells (fluorescence microscopy, cell counting). Format: cell-based, simian.
Assay [1] relates to GAL4 responsive reporter plasmid. The assay can be described thus: Cotransfection of GAL4-HIF-1α fusion proteins with GAL4 responsive luciferase reporter. Format: cell-based, simian. From the text:
To analyze functional activities of HIF-1α independently of the endogenous DNA binding and dimerization domains and the Arnt partner, we next fused HIF-1α to the heterologous DNA binding domain of GAL4. Functional activity of the fusion protein was monitored in COS7 cells by a cotransfection assay using a reporter gene construct carrying five GAL4 DNA binding elements in front of thymidine kinase promoter and the luciferase gene. Six hours after transfection media was changed, and cells were either left uninduced or exposed to 1% oxygen for 30 h prior to harvest. In the presence of either empty expression vector or a vector expressing the minimal GAL4 DNA binding domain, reporter gene activity was unaltered by reduced oxygen levels. […] The GAL4 DNA binding domain is known to harbor an NLS motif capable of taking fusion proteins to the nucleus (Ma and Ptashne (1987) Cell 51, 113-119). We therefore used antibodies directed against the DNA binding domain of GAL4 to examine in both normoxic and hypoxic cells the intracellular localization of the GAL4-HIF-1α fusion protein by immunofluorescence.
Transcriptional activity of GFP and GAL4 fusion constructs was analyzed in a cotransfection assay where effector plasmids (0.2 μg/30-mm dish) together with a reporter gene (1.5 μg/30-mm dish) were introduced into COS7 or HeLa cells. […]
(Reporter assays use an easily measured gene product as a stand-in for the process of interest.)

The target of another assay is GST/Ref-1 (Homo sapiens, UniProt P27695). The assay can be described thus: Pull-down of [35S]methionine-labeled GAL4/HIF proteins with GST/Ref-1. The conditions noted are these: presence or absence of diamide. Format: binding. How it is done: The precise mechanism by which Ref-1 activates HIF-1α is not known. […] To further investigate whether Ref-1 could interact with HIF-1α, we tried to trap the interaction by using a crosslinking reagent such as diamide, which oxidizes cysteine sulfhydryls to disulfides. A series of experiments was performed with GST-tagged purified Ref-1. [^35S]methionine-labeled in vitro translated GAL4/HIF 1-826 was incubated with GST/Ref-1 in the presence or absence of diamide.
Next, we tried a series of pull-down experiments with [^35S]methionine-labeled in vitro translated GAL4/HIF […] and GAL4/HIF 531-584. […] An interaction between GAL4/HIF […] and GST/Ref-1 was also detected, and this interaction was enhanced in the presence of diamide. In excellent agreement with this observation the C-TAD contains two cysteine residues. […] Immunoblot analysis verified that the input concentrations of GST/Ref-1 or GST alone were similar.

In assay [2] the test system is hypoxia responsive reporter gene (HRE-luc). The assay can be described thus: Cotransfection of GFP-HIF-1α fusion constructs with hypoxia responsive reporter gene (HRE-luc). Format: cell-based, simian. The conditions noted are these: 1% O2 vs normoxia, no CBP. From the text: We next examined the ability of GFP-HIF-1α fusion proteins in functional cotransfection assays where GFP-HIF-1α expression vectors were introduced into COS7 cells together with a hypoxia-responsive gene reporter construct carrying three tandem copies of the erythropoietin hypoxia responsive element (HRE) in front of the Herpes simplex thymidine kinase promoter and the luciferase gene. […] This reporter gene activity was further stimulated about 4-fold by hypoxia (FIG. 6A). In control experiments, transient expression of wild-type HIF-1α also yielded a similar pattern of reporter gene activation, albeit with a slightly lower potency generating about a 2-fold activation response upon exposure to hypoxia. […] In fact, stabilization of the fusion protein (FIG. 2C) by the GFP moiety may rather have enhanced the potency of the activation response produced by HIF-1α.
Transcriptional activity of GFP and GAL4 fusion constructs was analyzed in a cotransfection assay where effector plasmids (0.2 μg/30-mm dish) together with a reporter gene (1.5 μg/30-mm dish) were introduced into COS7 or HeLa cells. The reporter plasmid encoded firefly luciferase gene under the control of thymidine kinase minimal promoter and either five or three copies of GAL4 or HIF-responsive elements, respectively.

A further assay has as its target T1, HIF-1α/Arnt complex (Homo sapiens, UniProt Q16665).
T1 construct: expression plasmid for full-length HIF-1α (pCMV-HIF-1α); expressed in transfected cells
The assay can be described thus: pT81/HRE-Luc reporter assay with HIF-1α, Arnt and coactivators (CBP, TIF2, SRC-1). In kind it is cell-based. How it is done:
FIG. 8 The transcriptional coactivator TIF2 enhances the HIF-1α-mediated transactivation function and interacts with HIF-1α in vivo. COS7 cells were transiently cotransfected as described in Materials and Methods with 0.5 μg pT81/HRE-Luc reporter construct, hHIF1-α expression vector (pCMV4/HIF-1α, 0.2 μg), Arnt expression vector (pCMV4/Arnt, 0.2 μg) and 0.75-1.5 μg of either TIF2 (pSG5/TIF2) or CBP (Rc/RSV-CBP-HA), as indicated. The total amount of DNA was kept constant by the addition of parental pCMV4 when appropriate. Following transfection cells were incubated either under normoxic (21% O2) or hypoxic conditions (1% O2). Luciferase activities were normalized for transfection efficiency by cotransfection of alkaline phosphatase expressing pRSV-AF. Data are presented as luciferase activity relative to cells transfected with pCMV4 and reporter gene only and incubated at normoxia. Values represent the mean ±S.E. of two independent experiments.
(§1) FIG. 9 The transcriptional coactivator SRC-1 stimulates HIF-1α activity in a hypoxia-dependent manner and interacts in vitro with HIF-1α. (A) COS7 and (B) human embryonic kidney 293 cells were cotransfected with pT81/HRE-Luc (0.5 μg), 0.2 μg of pCMV4/HIF-1α (hHIF1-α), 0.2 μg of pCMV4/Arnt (Arnt), and 0.75-1.5 μg of SRC-1 (pSG5/SRC-1), as indicated. Six h after transfection cells were exposed to either 21 or 1% O2 for 36 h before harvest. Luciferase values are presented as relative luciferase activity as described in the legend to FIG. 1. The results of three independent experiments performed in duplicate ±S.E. are shown. (C) SRC-1 PAS domain is not required for functional interaction with HIF-1α. (Top) Schematic representation of full-length SRC-1 and SRC-1ΔPAS. (Bottom) pGAL4/HIF 71-826 was cotransfected into COS7 cells together with a reporter plasmid expressing the luciferase gene driven by the thymidine kinase minimal promoter under the control of five copies of GAL4-binding sites, and 1.5 μg of either full-length SRC-1 or a deletion mutant of SRC-1, SRC-1ΔPAS, lacking the PAS domain. Cells were exposed to 21 or 1% O2 for 36 h before harvest and reporter gene assays. Luciferase values are presented as relative luciferase activity as described in the legend to FIG. 1. The results of two independent experiments performed in duplicate +S.E. are shown. (D) In vitro interaction between SRC-1 and HIF-1α. COS7 cells were transfected with 10 μg of the expression plasmid pGST-HIF-1α (GST-HIF) or empty GST expression vector (GST). Cells were exposed to either 100 μM CoCl2 or vehicle (H2O) for 24 h. […] The eluted material was analyzed on 5% SDS-PAGE and visualized by fluorography. ⅕×Input represents one-fifth of the amount of [^35S]methionine-labeled SRC-1 used in the binding reactions. […]

The next assay addresses T2, GST-HIF-1α (Homo sapiens, UniProt Q16665).
T2 construct: expressed in transfected cells; host or cells: COS7 cells, treated with 100 μM CoCl2 or vehicle; whole cell extract used
The assay can be described thus: GST precipitation assay of in vitro translated [35S]labeled SRC-1 with GST-HIF-1α. In kind it is binding. How it is done:
as §1, with “assays.” for “assays. Luciferase values are presented as relative luciferase activity as described in the legend to FIG. 1. The results of two independent experiments performed in duplicate +S.E. are shown. (D) In vitro interaction between SRC-1 and HIF-1α. COS7 cells were transfected with 10 μg of the expression plasmid pGST-HIF-1α (GST-HIF) or empty GST expression vector (GST). Cells were exposed to either 100 μM CoCl2 or vehicle (H2O) for 24 h.”

We go through 5 molecules from patent publication US6436654B1, “Methods for identifying compounds that modulate HIF-1α” (Pharmacia & Upjohn AB, priority 1998, dated 2002).

T1 sequence (Q16665 whole entry): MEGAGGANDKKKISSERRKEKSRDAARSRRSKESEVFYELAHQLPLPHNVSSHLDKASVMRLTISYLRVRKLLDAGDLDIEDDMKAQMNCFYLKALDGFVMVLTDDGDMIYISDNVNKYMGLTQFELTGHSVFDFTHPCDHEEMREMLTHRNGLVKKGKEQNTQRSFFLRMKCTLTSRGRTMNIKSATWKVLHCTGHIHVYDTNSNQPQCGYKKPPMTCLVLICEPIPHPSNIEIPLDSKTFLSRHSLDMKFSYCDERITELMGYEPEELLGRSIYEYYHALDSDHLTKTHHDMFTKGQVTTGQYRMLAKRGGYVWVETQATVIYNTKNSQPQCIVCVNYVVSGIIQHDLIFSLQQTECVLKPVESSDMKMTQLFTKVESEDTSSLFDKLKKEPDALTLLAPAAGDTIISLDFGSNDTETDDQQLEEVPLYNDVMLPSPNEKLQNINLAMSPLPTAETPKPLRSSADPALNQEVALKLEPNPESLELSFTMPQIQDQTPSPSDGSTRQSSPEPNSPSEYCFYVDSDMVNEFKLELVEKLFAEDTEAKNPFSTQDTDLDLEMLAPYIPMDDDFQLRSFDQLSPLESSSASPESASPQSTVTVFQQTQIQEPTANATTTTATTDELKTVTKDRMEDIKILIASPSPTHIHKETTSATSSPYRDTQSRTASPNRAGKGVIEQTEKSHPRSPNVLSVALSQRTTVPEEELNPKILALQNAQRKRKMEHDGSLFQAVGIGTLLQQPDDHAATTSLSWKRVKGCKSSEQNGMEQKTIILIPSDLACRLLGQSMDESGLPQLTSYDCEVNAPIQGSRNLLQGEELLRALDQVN
T1 sequence (P27540 whole entry partner): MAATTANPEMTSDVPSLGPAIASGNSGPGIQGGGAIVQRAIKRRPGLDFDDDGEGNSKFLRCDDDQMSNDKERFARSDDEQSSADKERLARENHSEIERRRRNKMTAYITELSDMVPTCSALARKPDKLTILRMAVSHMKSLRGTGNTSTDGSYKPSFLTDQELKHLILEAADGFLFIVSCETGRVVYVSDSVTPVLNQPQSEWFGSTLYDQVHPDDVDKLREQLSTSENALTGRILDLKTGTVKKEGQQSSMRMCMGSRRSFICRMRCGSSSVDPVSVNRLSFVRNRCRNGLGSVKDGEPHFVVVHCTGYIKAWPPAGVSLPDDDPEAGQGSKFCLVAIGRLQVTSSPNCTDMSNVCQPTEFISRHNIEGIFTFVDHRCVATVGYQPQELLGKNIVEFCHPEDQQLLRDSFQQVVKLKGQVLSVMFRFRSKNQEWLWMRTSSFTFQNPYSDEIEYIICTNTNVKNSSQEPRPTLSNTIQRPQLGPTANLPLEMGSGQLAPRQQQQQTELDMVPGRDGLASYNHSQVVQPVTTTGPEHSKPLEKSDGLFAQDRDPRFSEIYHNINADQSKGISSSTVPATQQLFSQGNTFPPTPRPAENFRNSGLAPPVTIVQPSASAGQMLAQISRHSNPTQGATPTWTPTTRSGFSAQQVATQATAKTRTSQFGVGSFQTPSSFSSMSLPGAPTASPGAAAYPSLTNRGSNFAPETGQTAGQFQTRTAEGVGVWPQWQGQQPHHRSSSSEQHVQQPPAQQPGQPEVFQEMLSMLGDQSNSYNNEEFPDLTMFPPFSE
T2 sequence (Q16665 whole entry): as the sequence (Q16665 whole entry) above
Chain of GST/Ref-1 (P27695 whole entry, species assumed, the tested form may be a part): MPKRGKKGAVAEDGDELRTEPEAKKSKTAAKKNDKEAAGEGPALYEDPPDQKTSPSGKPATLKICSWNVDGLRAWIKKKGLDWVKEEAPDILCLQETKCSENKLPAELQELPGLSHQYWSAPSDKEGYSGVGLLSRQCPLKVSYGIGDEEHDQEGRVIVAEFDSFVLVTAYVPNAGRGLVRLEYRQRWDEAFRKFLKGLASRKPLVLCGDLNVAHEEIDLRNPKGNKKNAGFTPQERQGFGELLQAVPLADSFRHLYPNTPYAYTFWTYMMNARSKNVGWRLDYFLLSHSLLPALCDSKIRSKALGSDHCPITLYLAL

For the molecule `[Cl-].[Cl-].[Co+2]` [CoCl2], the “effect on nuclear import of GFP-HIF-1α” value in the assay on COS7 cells was “induced nuclear import of GFP-HIF-1α”.
On to “GAL4-HIF-1α: full length HIF-1α fused to the GAL4 DNA binding domain”, for which the “hypoxia-dependent activation of GAL4 reporter gene activity” value in assay [1] (1% O2 vs normoxia, no exogenous coactivator) is on record as “about 2 fold”. In assay [1] (hypoxic conditions, vs hypoxia without exogenous coactivator), the “stimulation of GAL4 reporter activity by coexpressed CBP” value is 19 fold. Further, the “binding to GST/Ref-1 (in words)” value with GST/Ref-1 is on record as “weakly bind GST/Ref-1”.
Consider “HIF-1α: transiently expressed wild-type human hypoxia-inducible factor-1α”, for which the “stimulation of HRE reporter gene activity by hypoxia compared to normoxia” value in assay [2] is reported as “about 2 fold”. For the same molecule, the “increase of reporter gene activity by hypoxia” value in the assay with HIF-1α/Arnt complex (coexpression of HIF-1α and Arnt, 1% O2) is on record as ~1.5 fold. For the same molecule, the “stimulation of pT81/HRE-luc reporter gene activity” value with HIF-1α/Arnt complex (coexpression of HIF-1α and Arnt, normoxic conditions) is reported as “around 10 fold”.
With “SRC-1: p160 family transcriptional coactivator”, the “enhancement of transcriptional activity of HIF-1α” value with HIF-1α/Arnt complex (normoxic conditions, COS7) is listed as “around 3 fold”. The results for the “binding to GST-HIF-1α (in words)” value with GST-HIF-1α (extract of cells treated with 100 μM CoCl2) and with GST-HIF-1α (extract of non-treated cells) were “specifically retained” and “no significant binding”, respectively.
As for “TIF2: p160 family transcriptional coactivator”, in the assay with HIF-1α/Arnt complex (coexpression with HIF-1α, COS7), the “activation of the reporter gene over the levels observed at normoxia” value is listed as “around 12 fold”.
